Measured values reported in patent US20250361297A1 (ADAPTAM THERAPEUTICS S L, published 2025).

Assays:
[1] = biological target: T1, human Siglec-15, full length, expressed on cells (human, UniProt Q6ZMC9 20-328); assay: flow cytometry, HEK293T cells expressing human Siglec-15, anti-human IgG-PE, gMFI
T1 construct: also called hS15; MOLM-13 Siglec-15 expressing cells
T1 sequence: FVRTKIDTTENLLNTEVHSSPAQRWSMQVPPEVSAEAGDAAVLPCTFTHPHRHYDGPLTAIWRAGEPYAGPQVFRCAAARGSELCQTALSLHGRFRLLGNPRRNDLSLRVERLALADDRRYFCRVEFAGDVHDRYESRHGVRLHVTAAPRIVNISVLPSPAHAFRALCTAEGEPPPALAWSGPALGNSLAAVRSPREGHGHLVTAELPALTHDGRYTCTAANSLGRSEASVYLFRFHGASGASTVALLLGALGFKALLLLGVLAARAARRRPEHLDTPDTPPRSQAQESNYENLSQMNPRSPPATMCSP

[2] = biological target: recombinant CD3 (UniProt P07766 23-126; P09693 23-116); assay: antibody as ligand, 'Human CD3 epsilon&CD3 gamma' as analyte; legend paragraph 116 says BLI, methods paragraph 422 say Biacore SPR, table in RU
Sequence of recombinant CD3 (P07766 23-126, form in doubt, chain 1 of 2): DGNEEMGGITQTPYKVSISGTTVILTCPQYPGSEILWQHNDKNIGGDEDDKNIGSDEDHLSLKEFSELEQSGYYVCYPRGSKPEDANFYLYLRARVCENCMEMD
Sequence of recombinant CD3 (P09693 23-116, form in doubt, chain 2 of 2): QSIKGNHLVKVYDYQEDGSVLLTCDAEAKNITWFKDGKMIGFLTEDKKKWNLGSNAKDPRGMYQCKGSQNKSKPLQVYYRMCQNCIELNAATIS

[3] = biological target: T2, CD3 on Jurkat cells (UniProt P07766 23-207); assay: flow cytometry, Jurkat cells expressing CD3, gMFI
T2 construct: whole, on cells; Whole CD3 complex on cells; also called CD3-expressing Jurkat cells; Jurkat cells expressing CD3
T2 sequence (P07766 23-207): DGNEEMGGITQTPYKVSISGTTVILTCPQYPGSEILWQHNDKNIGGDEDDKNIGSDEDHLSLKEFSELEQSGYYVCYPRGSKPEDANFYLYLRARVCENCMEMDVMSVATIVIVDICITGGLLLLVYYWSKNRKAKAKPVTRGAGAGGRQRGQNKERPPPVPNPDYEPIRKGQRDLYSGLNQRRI

[4] = biological target: T3, truncated human Siglec-15 comprising only domain 2 (D2), expressed on HEK293T cells (human, UniProt Q6ZMC9 168-251, limits assumed); assay: flow cytometry, HEK293T cells expressing only domain 2 of human Siglec-15, fold change of Siglec15 gMFI relative to 2ry control
T3 construct: also called domain 2-only human Siglec-15; Siglec-15 Domain 2 (D2) HEK293T cells
T3 sequence: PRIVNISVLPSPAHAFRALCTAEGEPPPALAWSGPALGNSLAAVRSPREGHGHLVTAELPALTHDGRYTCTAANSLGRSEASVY

[5] = biological target: T1, human Siglec-15, full length, expressed …; assay: IgG1 titration, flow cytometry on MOLM-13 human Siglec-15 cells
[6] = biological target: T4, mouse Siglec-15, full length, expressed on HEK293T cells (mouse); assay: IgG1 titration, flow cytometry on HEK293T cells expressing mouse Siglec-15
T4 construct: also called mS15; HEK293T cells expressing mouse Siglec-15
T4 chain: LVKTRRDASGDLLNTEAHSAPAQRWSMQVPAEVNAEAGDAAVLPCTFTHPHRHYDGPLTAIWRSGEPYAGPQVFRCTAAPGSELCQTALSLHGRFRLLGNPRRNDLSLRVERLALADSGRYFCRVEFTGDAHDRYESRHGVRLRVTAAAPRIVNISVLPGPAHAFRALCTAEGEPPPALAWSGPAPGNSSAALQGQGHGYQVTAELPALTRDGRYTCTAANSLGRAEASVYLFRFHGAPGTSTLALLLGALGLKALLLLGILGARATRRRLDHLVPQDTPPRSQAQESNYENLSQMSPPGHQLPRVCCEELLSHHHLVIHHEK

[7] = biological target: T5, recombinant human Siglec-15-his protein (Bonopusbio) (human, UniProt Q6ZMC9 20-263); assay: ELISA, plate coated with 100 ng per well recombinant human Siglec-15 (supplier not named in Example 3), HRP anti-mouse IgG, OD450
T5 construct: Bought (CW37-50 ug in the ELISA; the SPR paragraph prints CW70-50 ug); whole entry named; also called recombinant human Siglec-15 protein
T5 sequence: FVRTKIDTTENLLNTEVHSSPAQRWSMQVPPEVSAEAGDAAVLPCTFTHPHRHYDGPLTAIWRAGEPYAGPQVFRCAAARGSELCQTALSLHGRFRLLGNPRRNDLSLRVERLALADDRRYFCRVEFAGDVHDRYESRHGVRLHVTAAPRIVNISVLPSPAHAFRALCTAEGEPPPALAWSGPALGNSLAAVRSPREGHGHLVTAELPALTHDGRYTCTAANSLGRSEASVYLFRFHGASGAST

[8] = biological target: T1, human Siglec-15, full length, expressed …; assay: flow cytometry, HEK293T cells expressing human Siglec-15, anti-human IgG-PE, MFI
[9] = biological target: T5, recombinant human Siglec-15-his protein …; assay: SPR (Biacore T200), antibody on CM5 chip, Siglec-15-his as analyte
[10] = biological target: T6, recombinant cynomolgus Siglec-15-his protein (Bonopusbio, CW70-50 ug) (cynomolgus monkey, UniProt Q6ZMC9 20-259 (human entry)); assay: ELISA, plate coated with recombinant cynomolgus Siglec-15-his, antibody titrated up to about 200 nM, OD 450 nm
T6 construct: whole entry named; also called cynomolgous Siglec-15
T6 chain: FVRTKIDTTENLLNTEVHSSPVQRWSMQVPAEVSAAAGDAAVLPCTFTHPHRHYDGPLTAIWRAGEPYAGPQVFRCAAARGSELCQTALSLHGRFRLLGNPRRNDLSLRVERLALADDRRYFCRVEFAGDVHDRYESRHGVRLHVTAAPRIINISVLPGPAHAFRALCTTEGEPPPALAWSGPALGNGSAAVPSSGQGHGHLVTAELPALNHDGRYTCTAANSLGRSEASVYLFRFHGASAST

[11] = biological target: T3, truncated human Siglec-15 comprising …; assay: flow cytometry on HEK 293T cells expressing only D2; compared to antibody clone A2A5C7E8
[12] = biological target: T7, recombinant Siglec-15 (bispecific antibody affinity assay) (Homo sapiens (Human), UniProt Q6ZMC9 20-263, limits assumed); assay: antibody as ligand, human Siglec15 as analyte; legend paragraph 114 says BLI, methods paragraph 422 say Biacore SPR, table in RU
T7 sequence: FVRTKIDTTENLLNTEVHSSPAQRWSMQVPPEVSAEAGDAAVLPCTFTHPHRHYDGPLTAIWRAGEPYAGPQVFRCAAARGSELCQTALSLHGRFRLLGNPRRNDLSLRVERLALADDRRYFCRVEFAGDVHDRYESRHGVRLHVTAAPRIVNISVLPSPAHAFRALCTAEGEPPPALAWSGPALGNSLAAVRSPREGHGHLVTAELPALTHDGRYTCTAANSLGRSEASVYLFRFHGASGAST

[13] = biological target: T1, human Siglec-15, full length, expressed …; assay: flow cytometry, THP-1 cells overexpressing human Siglec-15, ADC titrated, anti-human IgG-PE, gMFI
[14] = biological target: T1, human Siglec-15, full length, expressed …; assay: as above; remark: listed apart in the source
[15] = biological target: T1, human Siglec-15, full length, expressed …; assay: as above; remark: listed apart in the source

B1: 5G12 (antibody, V domains shown)
VH: QVQLQQPGAELVKPGASVKMSCKASGYTFTSYWITWVIQRPGQGLEWIGDIYCGSDTMHYNEKFKNKATLTVDTSSSTAYMQLSSLTSEDSAVYYCARWWDYGSSYDYFDYWGQGTTLTVSS
VL: DIKMTQSPSSMYASLGERVTITCKASQDINSYLSWFQQKPGKSPKTLIYRANRLVDGVPSRFSGSGSGQDYSLTISSLEYEDMGIYYCLQYDEFPYTFGGGTKLEIKR
EC50 (read off the curve) [1]: ~1 nM

B2: parental anti-CD3 antibody (humanized SP34 CD3 antibody) (antibody, V domains shown)
VH: EVQLVESGGGLVKPGGSLRLSCAASGFTFNTYAMNWVRQAPGKGLEWVARIRSKYNNYATYYADSVKDRFTISRDDSKNTLYLQMNSLKTEDTAVYYCVRHGNFGNSYVSWFAYWGQGTLVTVSS
VL: QTVVTQEPSFSVSPGGTVTLTCRSSTGAVTTSNYANWVQQTPGQAPRGLIGGTNKRAPGVPARFSGSILGNKAALTITGAQADDEAEYFCALWYSNLWVFGGGTKLTVL
notes: also called anti-human CD3 humanized antibody; anti-CD3 mAb
Kd [2]: 67.1 nM
koff [2]: 0.00713 s⁻¹
kon [2]: 106000 M⁻¹ s⁻¹
EC50 (read off the curve) [3]: ~0.2 nM

B3: A2A5C7E8-3 (antibody, V domains shown)
VH: EVQLVQSGAEVKKPGESLRISCKGSGYSFTTYWISWVRQMPGKGLEWMGLIDPSDSYTNYSPSFKGHVTISTDKSISTAYLQWSSLKASDTAMYYCARGGYYGSEEDYWGQGTLVTVSS
VL: EIVLTQSPGTLSLSPGERATLSCRASQSVSSSRLAWFQQKSGQAPRLLIFDASSRATGIPDRFSGSGSGTDFTLTISRLEPEDFAVYYCQQYGSSPRTFGQGTKVEFKR
EC50 (read off the curve) [1]: ~0.5 nM

B4: ZLA-1243-A01 (antibody, V domains shown)
VH: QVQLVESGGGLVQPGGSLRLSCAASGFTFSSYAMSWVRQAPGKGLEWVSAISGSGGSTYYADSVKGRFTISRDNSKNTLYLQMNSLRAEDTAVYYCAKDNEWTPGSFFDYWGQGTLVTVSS
VL: QSALTQPASVSGSPGQSITISCTGTSSDVGGYNYVSWYQQHPGKAPKLMIYDVSNRPSGVSNRFSGSKSGNTASLTISGLQAEDEADYYCSSYTSSSTRVFGGGTKVTVL
notes: Fully human, from phage display; tested as full-length human IgG1 with silenced Fc (E233P, L234V, L235A, G236 deletion, D265G, A327Q, A330S, C-terminus lysine deletion)
binding result [4]: no binding
EC50 [5]: 0.181 µg/mL
EC50 (read off the curve) [1]: ~1 nM
EC50 [6]: 0.0753 µg/mL

B5: S15B1 (antibody, V domains shown)
VH: QVQLQQSGPELVKPGASVKISCKASGYAFSSSWMNWVKQRPGKGLEWIGRIYPGHGETNYNGKFKDKATVTADKSSSTTYMQLSSLTSEDSAVYFCARVDNSDPYYFDYWGQGTTLTVSS
VL: DIVLTQSPASLAVSLGQRATISCRASKSVSTSGYSYMHWYQQKPGQPPKLLIYLASNLESGVPARFSGSGSGTDFTLNIHPVEEEDAATYYCQHGRELPFTFGSGTKLEIK
notes: Mouse hybridoma monoclonal antibody ('parental mouse S15B1'); also called clone S15B1; S15B1-VH + VL (Parental)
EC50 (read off the curve) [7]: ~0.2 µg/mL
EC50 (read off the curve) [8]: ~0.5 nM
Kd [9]: 0.0522 nM
koff [9]: 0.000233 s⁻¹
kon [9]: 4.46e+06 M⁻¹ s⁻¹
EC50 (read off the curve) [10]: ~0.6 nM
fold increase in antibody-positive cells [11]: ~4 fold
Kd [12]: 0.0497 nM
koff [12]: 0.000154 s⁻¹
kon [12]: 3.11e+06 M⁻¹ s⁻¹

B6: S15B1-MMAE ADC (other)
VH: QVQLQQSGPELVKPGASVKISCKASGYAFSSSWMNWVKQRPGKGLEWIGRIYPGHGETNYNGKFKDKATVTADKSSSTTYMQLSSLTSEDSAVYFCARVDNSDPYYFDYWGQGTTLTVSS
VL: DIVLTQSPASLAVSLGQRATISCRASKSVSTSGYSYMHWYQQKPGQPPKLLIYLASNLESGVPARFSGSGSGTDFTLNIHPVEEEDAATYYCQHGRELPFTFGSGTKLEIK
modifications: vc-MMAE payload linker conjugated to the antibody; residue not stated
notes: Antibody-drug conjugate; also called S15B1-based antibody-drug conjugate with MMAE
EC50 (read off the curve) [13]: ~8 nM

B7: S15B1-Exatecan ADC (other)
VH: QVQLQQSGPELVKPGASVKISCKASGYAFSSSWMNWVKQRPGKGLEWIGRIYPGHGETNYNGKFKDKATVTADKSSSTTYMQLSSLTSEDSAVYFCARVDNSDPYYFDYWGQGTTLTVSS
VL: DIVLTQSPASLAVSLGQRATISCRASKSVSTSGYSYMHWYQQKPGQPPKLLIYLASNLESGVPARFSGSGSGTDFTLNIHPVEEEDAATYYCQHGRELPFTFGSGTKLEIK
modifications: MC-GGFG-Exatecan payload linker conjugated to the antibody; residue not stated
notes: Antibody-drug conjugate; also called S15B1-based antibody-drug conjugate with Exatecan
EC50 (read off the curve) [14]: ~6 nM

B8: ZLA-1243-E01-MMAE (other)
VH: QVQLVQSGGGLVQPGRSLRLSCAASGFTFDDYAMHWVRQAPGKGLEWVSGISWNSGSIGYADSVKGRFTISRDNAKNSLYLQMNSLRAEDTALYYCAKGLWPSYDLDAFDIWGQGTMVTVSS
VL: QSALTQPASVSGSPGQSITLSCTGTSSDVGAYNFVSWYQQHPGTAPKLMIYEVSNRPSGVSDRFSGSKSGNTASLTISGLQAEDEADYYCSSYTSTIPPFVFGTGTKVTVL
modifications: vc-MMAE payload linker conjugated to the antibody; residue not stated
EC50 (read off the curve) [15]: ~3 nM

B9: BsAb-1 (bispecific antibody, human IgG1, kappa, lambda, L234A L235A)
light 1: not shown
heavy 1: QVQLQQSGPELVKPGASVKISCKASGYAFSSSWMNWVKQRPGKGLEWIGRIYPGHGETNYNGKFKDKATVTADKSSSTTYMQLSSLTSEDSAVYFCARVDNSDPYYFDYWGQGTTLTVSSASTKGPSVFPLAPSSKSTSGGTAALGCLVKDYFPEPVTVSWNSGALTSGVHTFPAVLQSSGLYSLSSVVTVPSSSLGTQTYICNVNHKPSNTKVDKKVEPKSCDKTHTCPPCPAPEAAGGPSVFLFPPKPKDTLMISRTPEVTCVVVDVSHEDPEVKFNWYVDGVEVHNAKTKPREEQYNSTYRVVSVLTVLHQDWLNGKEYKCKVSNKALPAPIEKTISKAKGQPREPQVCTLPPSRDELTKNQVSLSCAVKGFYPSDIAVEWESNGQPENNYKTTPPVLDSDGSFFLVSKLTVDKSRWQQGNVFSCSVMHEALHNHYTQKSLSLSPGK
heavy 2: not shown
light 2: QTVVTQEPSFSVSPGGTVTLTCRSSTGAVTTSNYANWVQQTPGQAPRGLIGGTNKRAPGVPARFSGSILGNKAALTITGAQADDEAEYFCALWYSNLWVFGGGTKLTVLASTKGPSVFPLAPSSKSTSGGTAALGCLVKDYFPEPVTVSWNSGALTSGVHTFPAVLQSSGLYSLSSVVTVPSSSLGTQTYICNVNHKPSNTKVDKKVEPKSC
notes: S15B1 arm and humanized SP34 anti-CD3 arm; also called anti-Siglec-15/CD3 bispecific antibody, Format-1: KIH & CrossmAb
Kd [2]: 115 nM
koff [2]: 0.011 s⁻¹
kon [2]: 95800 M⁻¹ s⁻¹
Kd [12]: 0.0865 nM
koff [12]: 0.00025 s⁻¹
kon [12]: 2.89e+06 M⁻¹ s⁻¹
EC50 (read off the curve) [3]: ~4 nM
